In patent US20220098306A1 (published 2022):

Target: CD28 (antigen of the affinity determinations) (human, UniProt P10747 19-152)
Assay: -; Fab, 2+1 CLC

Kd: 200 nM
B1: XENP37810 (bispecific antibody)
heavy 1: EVQLLESGGGLVQPGGSLRLSCAASGFTFSSYYMSWVRQAPGKGLEWVSTISESGDSTYYADSVKGRFTISRDNSKNTLYLQMNSLRAEDTAVYYCAKSGPGLRQVGFDYWGQGTLVTVSSASTKGPSVFPLAPSSKSTSGGTAALGCLVKDYFPEPVTVSWNSGALTSGVHTFPAVLQSSGLYSLSSVVTVPSSSLGTQTYICNVNHKPSDTKVDKKVEPKSCDKTHTCPPCPAPPVAGPSVFLFPPKPKDTLMISRTPEVTCVVVDVKHEDPEVKFNWYVDGVEVHNAKTKPREEEYNSTYRVVSVLTVLHQDWLNGKEYKCKVSNKALPAPIEKTISKAKGQPREPQVYTLPPSREEMTKNQVSLTCDVSGFYPSDIAVEWESDGQPENNYKTTPPVLDSDGSFFLYSKLTVDKSRWEQGDVFSCSVLHEALHSHYTQKSLSLSPGK
heavy 2: QVQLVQSGAEVKKPGASVKVSCKASGYIFTNHYMHWVRQAPGQGLEWMGIISPSAGSTDYAQKFQGRVTMTRDTSTSTVYMELSSLRSEDTAVYYCARGGGSSPRLDYWGQGTLVTVSSASTKGPSVFPLAPSSKSTSGGTAALGCLVKDYFPEPVTVSWNSGALTSGVHTFPAVLQSSGLYSLSSVVTVPSSSLGTQTYICNVNHKPSNTKVDKKVEPKSCGKPGSGKPGSQVQLVQSGAEVKKPGASVKVSCKASGYIFTNHYMHWVRQAPGQGLEWMGIISPSAGSTDYAQKFQGRVTMTRDTSTSTVYMELSSLRSEDTAVYYCARGGGSSPRLDYWGQGTLVTVSSASTKGPSVFPLAPSSKSTSGGTAALGCLVKDYFPEPVTVSWNSGALTSGVHTFPAVLQSSGLYSLSSVVTVPSSSLGTQTYICNVNHKPSNTKVDKKVEPKSCDKTHTCPPCPAPPVAGPSVFLFPPKPKDTLMISRTPEVTCVVVDVKHEDPEVKFNWYVDGVEVHNAKTKPREEQYNSTYRVVSVLTVLHQDWLNGKEYKCKVSNKALPAPIEKTISKAKGQPREPQVYTLPPSREQMTKNQVKLTCLVKGFYPSDIAVEWESNGQPENNYKTTPPVLDSDGSFFLYSKLTVDKSRWQQGNVFSCSVLHEALHSHYTQKSLSLSPGK
light: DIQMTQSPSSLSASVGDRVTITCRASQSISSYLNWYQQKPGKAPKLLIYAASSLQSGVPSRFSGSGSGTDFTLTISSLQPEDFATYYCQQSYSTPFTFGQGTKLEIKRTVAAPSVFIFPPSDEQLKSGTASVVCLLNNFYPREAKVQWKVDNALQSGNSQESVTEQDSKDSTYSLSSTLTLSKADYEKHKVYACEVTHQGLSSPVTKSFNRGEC
